{
  "source": "patent US20090099029",
  "data": [
    {"molecular_target": "T1, Bovine, dephosphorylated, Myelin Basic Protein (MBP), P02687", "T1 chain": "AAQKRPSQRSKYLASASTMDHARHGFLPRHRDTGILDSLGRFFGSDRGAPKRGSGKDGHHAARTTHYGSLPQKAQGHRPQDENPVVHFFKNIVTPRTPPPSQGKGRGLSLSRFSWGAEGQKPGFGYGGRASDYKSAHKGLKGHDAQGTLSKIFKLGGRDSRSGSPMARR", "values": [
      {"protein": "CSNK1D(CK1delta) (protein) MELRVGNRYRLGRKIGSGSFGDIYLGTDIAAGEEVAIKLECVKTKHPQLHIESKIYKMMQGGVGIPTIRWCGAEGDYNVMVMELLGPSLEDLFNFCSRKFSLKTVLLLADQMISRIEYIHSKNFIHRDVKPDNFLMGLGKKGNLVYIIDFGLAKKYRDARTHQHIPYRENKNLTGTARYASINTHLGIEQSRRDDLESLGYVLMYFNLGSLPWQGLKAATKRQKYERISEKKMSTPIEVLCKGYPSEFATYLNFCRSLRFDDKPDYSYLRQLFRNLFHRQGFSYDYVFDWNMLKFGASRAADDAERERRDREERLRHSRNPATRGLPSTASGRLRGTQEVAPPTPLTPTSHTANTSPRPVSGMERERKVSMRLHRGAPVNISSSDLTGRQDTSRMSTSQNSIPFEHHGK", "MBP Kinase Activity": "Negative"},
      {"protein": "DAPK3(ZIPK) (protein) MSTFRQEDVEDHYEMGEELGSGQFAIVRKCRQKGTGKEYAAKFIKKRRLSSSRRGVSREEIEREVNILREIRHPNIITLHDIFENKTDVVLILELVSGGELFDFLAEKESLTEDEATQFLKQILDGVHYLHSKRIAHFDLKPENIMLLDKNVPNPRIKLIDFGIAHKIEAGNEFKNIFGTPEFVAPEIVNYEPLGLEADMWSIGVITYILLSGASPFLGETKQETLTNISAVNYDFDEEYFSNTSELAKDFIRRLLVKDPKRRMTIAQSLEHSWIKAIRRRNVRGEDSGRKPERRRLKTTRLKEYTIKSHSSLPPNNSYADFERFSKVLEEAAAAEEGLRELQRSRRLCHEDVEALAAIYEEKEAWYREESDSLGQDLRRLRQELLKTEALKRQAQEEAKGALLGTSGLKRRFSRLENRYEALAKQVASEMRFVQDLVRALEQEKLQGVECGLR", "MBP Kinase Activity": "Negative"},
      {"protein": "EPHA3 (protein) RFCGYKSKHGADEKRLHFGNGHLKLPGLRTYVDPHTYEDPTQAVHEFAKELDATNISIDKVVGAGEFGEVCSGRLKLPSKKEISVAIKTLKVGYTEKQRRDFLGEASIMGQFDHPNIIRLEGVVTKSKPVMIVTEYMENGSLDSFLRKHDAQFTVIQLVGMLRGIASGMKYLSDMGYVHRDLAARNILINSNLVCKVSDFGLSRVLEDDPEAAYTTRGGKIPIRWTSPEAIAYRKFTSASDVWSYGIVLWEVMSYGERPYWEMSNQDVIKAVDEGYRLPPPMDCPAALYQLMLDCWQKDRNNRPKFEQIVSILDKLIRNPGSLKIITSAAARPSNLLLDQSNVDITTFRTTGDWLNGVWTAHCKEIFTGVEYSSCDTIAKISTDDMKKVGVTVVGPQKKIISSIKALETQSKNGPVPV", "MBP Kinase Activity": "Strong"},
      {"protein": "CHEK1 (protein) MAVPFVEDWDLVQTLGEGAYGEVQLAVNRVTEEAVAVKIVDMKRAVDCPENIKKEICINKMLNHENVVKFYGHRREGNIQYLFLEYCSGGELFDRIEPDIGMPEPDAQRFFHQLMAGVVYLHGIGITHRDIKPENLLLDERDNLKISDFGLATVFRYNNRERLLNKMCGTLPYVAPELLKRREFHAEPVDVWSCGIVLTAMLAGELPWDQPSDSCQEYSDWKEKKTYLNPWKKIDSAPLALLHKILVENPSARITIPDIKKDRWYNKPLKKGAKRPRVTSGGVSESPSGFSKHIQSNLDFSPVNSASSEENVKYSSSQPEPRTGLSLWDTSPSYIDKLVQGISFSQPTCPDHMLLNSQLLGTPGSSQNPWQRLVKRMTRFFTKLDADKSYQCLKETCEKLGYQWKKSCMNQVTISTTDRRNNKLIFKVNLLEMDDKILVDFRLSKGDGLEFKRHFLKIKGKLIDIVSSQKIWLPAT", "MBP Kinase Activity": "Strong"},
      {"protein": "DMPK (protein) MSAEVRLRRLQQLVLDPGFLGLEPLLDLLLGVHQELGASELAQDKYVADFLQWAEPIVVRLKEVRLQRDDFEILKVIGRGAFSEVAVVKMKQTGQVYAMKIMNKWDMLKRGEVSCFREERDVLVNGDRRWITQLHFAFQDENYLYLVMEYYVGGDLLTLLSKFGERIPAEMARFYLAEIVMAIDSVHRLGYVHRDIKPDNILLDRCGHIRLADFGSCLKLRADGTVRSLVAVGTPDYLSPEILQAVGGGPGTGSYGPECDWWALGVFAYEMFYGQTPFYADSTAETYGKIVHYKEHLSLPLVDEGVPEEARDFIQRLLCPPETRLGRGGAGDFRTHPFFFGLDWDGLRDSVPPFTPDFEGATDTCNFDLVEDGLTAMVSGGGETLSDIREGAPLGVHLPFVGYSYSCMALRDSEVPGPTPMELEAEQLLEPHVQAPSLEPSVSPQDETAEVAVPAAVPAAEAEAEVTLRELQEALEEEVLTRQSLSREMEAIRTDNQNFASQLREAEARNRDLEAHVRQLQERMELLQAEGATAVTGVPSPRATDPPSHLDGPPAVAVGQCPLVGPGPMHRRHLLLPARVPRPGLSEALSLLLFAVVLSRAAALGCIGLVAHAGQLTAVWRRPGAARAP", "MBP Kinase Activity": "Negative"},
      {"protein": "DAPK2 (protein) MFQASMRSPNMEPFKQQKVEDFYDIGEELGSGQFAIVKKCREKSTGLEYAAKFIKKRQSRASRRGVSREEIEREVSILRQVLHHNVITLHDVYENRTDVVLILELVSGGELFDFLAQKESLSEEEATSFIKQILDGVNYLHTKKIAHFDLKPENIMLLDKNIPIPHIKLIDFGLAHEIEDGVEFKNIFGTPEFVAPEIVNYEPLGLEADMWSIGVITYILLSGASPFLGDTKQETLANITAVSYDFDEEFFSQTSELAKDFIRKLLVKETRKRLTIQEALRHPWITPVDNQQAMVRRESVVNLENFRKQYVRRRWKLSFSIVSLCNHLTRSLMKKVHLRPDEDLRNCESDTEEDIARRKALHPRRRSSTS", "MBP Kinase Activity": "Negative"},
      {"protein": "CSNK2A1(CK2alpha1) (protein) MSGPVPSRARVYTDVNTHRPREYWDYESHVVEWGNQDDYQLVRKLGRGKYSEVFEAINITNNEKVVVKILKPVKKKKIKREIKILENLRGGPNIITLADIVKDPVSRTPALVFEHVNNTDFKQLYQTLTDYDIRFYMYEILKALDYCHSMGIMHRDVKPHNVMIDHEHRKLRLIDWGLAEFYHPGQEYNVRVASRYFKGPELLVDYQMYDYSLDMWSLGCMLASMIFRKEPFFHGHDNYDQLVRIAKVLGTEDLYDYIDKYNIELDPRFNDILGRHSRKRWERFVHSENQHLVSPEALDFLDKLLRYDHQSRLTAREAMEHPYFYTVVKDQARMGSSSMPGGSTPVSSANMMSGISSVPTPSPLGPLAGSPVIAAANPLGMPVPAAAGAQQ", "MBP Kinase Activity": "Strong"},
      {"protein": "CSNK2A2 (protein) MPGPAAGSRARVYAEVNSLRSREYWDYEAHVPSWGNQDDYQLVRKLGRGKYSEVFEAINITNNERVVVKILKPVKKKKIKREVKILENLRGGTNIIKLIDTVKDPVSKTPALVFEYINNTDFKQLYQILTDFDIRFYMYELLKALDYCHSKGIMHRDVKPHNVMIDHQQKKLRLIDWGLAEFYHPAQEYNVRVASRYFKGPELLVDYQMYDYSLDMWSLGCMLASMIFRREPFFHGQDNYDQLVRIAKVLGTEELYGYLKKYHIDLDPHFNDILGQHSRKRWENFIHSENRHLVSPEALDLLDKLLRYDHQQRLTAKEAMEHPYFYPVVKEQSQPCADNAVLSSGLTAAR", "MBP Kinase Activity": "Negative"},
      {"protein": "CSNK1E(CK1eps) (protein) MELRVGNKYRLGRKIGSGSFGDIYLGANIASGEEVAIKLECVKTKHPQLHIESKFYKMMQGGVGIPSIKWCGAEGDYNVMVMELLGPSLEDLFNFCSRKFSLKTVLLLADQMISRIEYIHSKNFIHRDVKPDNFLMGLGKKGNLVYIIDFGLAKKYRDARTHQHIPYRENKNLTGTARYASINTHLGIEQSRRDDLESLGYVLMYFNLGSLPWQGLKAATKRQKYERISEKKMSTPIEVLCKGYPSEFSTYLNFCRSLRFDDKPDYSYLRQLFRNLFHRQGFSYDYVFDWNMLKFGAARNPEDVDRERREHEREERMGQLRGSATRALPPGPPTGATANRLRSAAEPVASTPASRIQPAGNTSPRAISRVDRERKVSMRLHRGAPANVSSSDLTGRQEVSRIPASQTSVPFDHLGK", "MBP Kinase Activity": "Negative"}
    ]}
  ]
}
